The source of these data is article PMC5716730.

The target in this experiment is Cartilage oligomeric matrix protein (COMP), full-length, stably overexpressed in prostate cancer cells (human) (UniProt P49747). The experiment in a line: non-reducing SDS-PAGE with western blot; concentrated conditioned medium (Opti-MEM, 2 days) of transfected cells on a 5% non-reducing SDS-PAGE gel, blotted with anti-human COMP; under reducing conditions (10% gel) a sharp band of 130 kDa.

Sequence of Cartilage oligomeric matrix protein (COMP), full-length, stably overexpressed in prostate cancer cells, P49747 21-757 (natural protein; other documents disagree on this pair) (P49747 21-757): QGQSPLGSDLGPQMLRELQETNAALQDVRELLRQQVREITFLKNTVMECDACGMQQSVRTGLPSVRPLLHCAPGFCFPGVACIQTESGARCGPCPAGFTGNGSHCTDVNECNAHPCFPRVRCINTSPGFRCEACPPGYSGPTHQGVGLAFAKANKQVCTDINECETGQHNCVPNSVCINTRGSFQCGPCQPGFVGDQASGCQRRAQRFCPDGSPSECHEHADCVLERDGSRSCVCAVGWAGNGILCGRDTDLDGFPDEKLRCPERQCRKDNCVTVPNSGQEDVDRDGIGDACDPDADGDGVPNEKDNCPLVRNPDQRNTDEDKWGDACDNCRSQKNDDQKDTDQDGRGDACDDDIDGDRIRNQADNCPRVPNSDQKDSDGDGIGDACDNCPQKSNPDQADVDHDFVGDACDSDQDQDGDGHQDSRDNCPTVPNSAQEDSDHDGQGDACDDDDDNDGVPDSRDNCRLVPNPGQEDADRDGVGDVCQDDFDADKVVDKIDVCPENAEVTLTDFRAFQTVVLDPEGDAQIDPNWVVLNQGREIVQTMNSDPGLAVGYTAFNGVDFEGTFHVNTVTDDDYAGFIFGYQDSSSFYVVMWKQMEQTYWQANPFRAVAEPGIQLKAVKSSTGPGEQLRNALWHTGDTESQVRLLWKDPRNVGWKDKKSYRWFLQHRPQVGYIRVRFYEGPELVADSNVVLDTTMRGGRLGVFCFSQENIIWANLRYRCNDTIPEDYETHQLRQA

In general, stoichiometry N refers to the number of molecules, sites or subunits per partner or assembly. In turn, “Cartilage oligomeric matrix protein (COMP), full-length, stably overexpressed in prostate cancer cells, P49747 21-757 (natural protein; other documents disagree on this pair)” came in with a stoichiometry N of 5.
